This is an account of results in US20110286970A1.

Test [1] concerns the target wild type human α-synuclein (human) (UniProt P37840). Kind of test: cell-based or functional assay.
The target of test [2] is 12 amino acid fragment corresponding to amino acids 71-82 of human α-synuclein (human). Kind of test: cell-based or functional assay.

In turn, “M13 filamentous phage (wild-type, prepared with M13K07 helper phage)” gave an ELISA of α-synuclein oligomers in the insoluble fraction of SH-SY5Y cells in test [1] of 40 to 50 % reduction. This substance gave a Thioflavine T (Tht) fluorescence emission at 480 nm of the pre-aggregated peptide in test [2] of 43 % reduction.
